According to patent US20210253724A1:
Changes are numbered by the printed parent chain.

B1: P1AE3108 (antibody, IgG1, V domains shown)
VH: QVQLVQSGAEVKKPGSSVKVSCKASGFNIKDSYMHWVRQAPGQGLEWMGWIDPENGDTEYAPKFQGRVTITTDESTSTAYMELSSLRSEDTAVYYCNEGTPTGPYYFDYWGQGTLVTVSS
VL: EIQMTQSPSSLSASVGDRVTITCRASQSISSYMHWYQQKPGKAPKLLIYSTSNLASGVPSRFSGSGSGTDFTLTISSLQPEDFATYYCQQRSSYPLTFGGGTKLEIK
B2: P1AE0289 CEA (A5B7) Fab (parental murine antibody) (Fab, V domains shown)
VH: EVKLVESGGGLVQPGGSLRLSCATSGFTFTDYYMNWVRQPPGKALEWLGFIGNKANGYTTEYSASVKGRFTISRDKSQSILYLQMNTLRAEDSATYYCTRDRGLRFYFDYWGQGTTLTVSS
VL: QTVLSQSPAILSASPGEKVTMTCRASSSVTYIHWYQQKPGSSPKSWIYATSNLASGVPARFSGSGSGTSYSLTISRVEAEDAATYYCQHWSSKPPTFGGGTKLEIK
B3: P1AE4135 Fab derived from P1AE2164 (Fab, V domains shown)
VH: EVQLLESGGGLVQPGGSLRLSCAASGFTFTDYYMNWVRQAPGKGLEWLGFIGNKANGYTTEYSASVKGRFTISRDKSKNTLYLQMNSLRAEDTATYYCTRDRGLRFYFDYWGQGTTVTVSS
VL: QTVLTQSPATLSLSPGERATLSCRASSSVTYIHWYQQKPGSSPKSWIYATSNLASGIPARFSGSGSGTDYTLTISSLEPEDFAVYYCQHWSSKPPTFGQGTKLEIK
B4: P1AE4143 Fab derived from P1AE2182 (Fab, V domains shown)
VH: B3 VH with L48V, T95V, T99A
VL: B3 VL with Q1E, T2I, S41Q, S42A, K44R, Y70F
B5: P1AE4140 Fab derived from P1AE2177 (Fab, V domains shown)
VH: B3 VH with L48V, K76N, T95V
VL: B3 VL with Q1E, T2I, S41Q, S42A, K44R, Y70F
B6: P1AE4138 Fab derived from P1AE2167 (Fab, V domains shown)
VH: B3 VH
VL: B3 VL with Q1E, T2I, S41Q, S42A, K44R, Y70F
B7: P1AE4139 Fab derived from P1AE2176 (Fab, V domains shown)
VH: B3 VH with L48V, K76N, T95V
VL: B3 VL with Q1E, T2I, Y70F
B8: P1AE4141 Fab derived from P1AE2179 (Fab, V domains shown)
VH: B3 VH with L48V, T95V, T99A
VL: B3 VL
B9: P1AE4142 Fab derived from P1AE2181 (Fab, V domains shown)
VH: B3 VH with L48V, T95V, T99A
VL: B3 VL with Q1E, T2I, Y70F
B10: P1AE4136 Fab derived from P1AE2165 (Fab, V domains shown)
VH: B3 VH
VL: B3 VL with S41Q, S42A, K44R, S45L, W46L, Y70F
B11: P1AE4137 Fab derived from P1AE2166 (Fab, V domains shown)
VH: B3 VH
VL: B3 VL with Q1E, T2I, Y70F

biological target: human CEACAM5 (CEA) on cells (human) (UniProt P06731); test: flow cytometry on MKN45 cells; parameters: unit not given beside the values
Sequence (P06731 35-685 E398K limits assumed): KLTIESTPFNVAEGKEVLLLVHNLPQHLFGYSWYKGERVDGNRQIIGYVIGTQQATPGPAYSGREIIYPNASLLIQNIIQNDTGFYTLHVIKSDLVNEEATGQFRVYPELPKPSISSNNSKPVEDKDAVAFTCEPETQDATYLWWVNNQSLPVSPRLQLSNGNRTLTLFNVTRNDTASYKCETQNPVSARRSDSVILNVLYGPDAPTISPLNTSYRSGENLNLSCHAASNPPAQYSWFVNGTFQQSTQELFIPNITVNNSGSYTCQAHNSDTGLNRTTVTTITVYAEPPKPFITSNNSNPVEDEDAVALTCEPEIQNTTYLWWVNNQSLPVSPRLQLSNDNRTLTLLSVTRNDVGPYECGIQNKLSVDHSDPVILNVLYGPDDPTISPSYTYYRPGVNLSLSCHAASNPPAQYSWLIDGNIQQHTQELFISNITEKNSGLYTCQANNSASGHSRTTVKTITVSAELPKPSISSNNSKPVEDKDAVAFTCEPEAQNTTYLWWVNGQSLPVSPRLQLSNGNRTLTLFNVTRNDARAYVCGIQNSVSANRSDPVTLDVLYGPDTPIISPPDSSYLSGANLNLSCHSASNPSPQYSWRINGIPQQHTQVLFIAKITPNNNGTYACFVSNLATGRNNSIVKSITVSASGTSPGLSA

Row | AUC | Binder
1 | 2090 | B1

biological target: hu N(A2-B2)A-avi-His B (human); test: SPR (Biacore T200), CEA construct immobilised, Fab as analyte, 1:1 Langmuir fit
Sequence (P06731 whole entry): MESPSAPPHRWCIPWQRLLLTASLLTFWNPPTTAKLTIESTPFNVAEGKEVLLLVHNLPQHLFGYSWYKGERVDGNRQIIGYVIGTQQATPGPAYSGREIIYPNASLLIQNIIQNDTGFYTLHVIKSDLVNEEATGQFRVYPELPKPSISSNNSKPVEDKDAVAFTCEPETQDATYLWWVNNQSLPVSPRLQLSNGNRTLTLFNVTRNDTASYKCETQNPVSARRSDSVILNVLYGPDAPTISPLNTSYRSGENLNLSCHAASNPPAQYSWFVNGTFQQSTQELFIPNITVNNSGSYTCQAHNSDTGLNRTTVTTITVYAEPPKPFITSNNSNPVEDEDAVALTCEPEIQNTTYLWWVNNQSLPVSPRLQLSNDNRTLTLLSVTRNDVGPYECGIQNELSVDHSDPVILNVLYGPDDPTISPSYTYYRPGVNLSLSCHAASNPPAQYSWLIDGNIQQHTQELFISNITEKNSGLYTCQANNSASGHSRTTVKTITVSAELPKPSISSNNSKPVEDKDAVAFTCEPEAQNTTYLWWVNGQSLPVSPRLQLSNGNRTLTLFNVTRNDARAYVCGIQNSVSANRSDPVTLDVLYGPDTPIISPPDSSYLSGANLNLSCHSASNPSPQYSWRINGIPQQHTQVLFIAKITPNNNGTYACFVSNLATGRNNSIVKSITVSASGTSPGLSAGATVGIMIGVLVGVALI

Row | Kd [nM] | Binder
2 | 0.559 | B2
3 | 1.7 | B3
4 | 2.92 | B4
5 | 7.62 | B5
6 | 1.47 | B6
7 | 7.58 | B7
8 | 1.83 | B8
9 | 2.64 | B9
10 | 1.25 | B10
11 | 11.3 | B11
